The record followed here is patent US20110184152A1.

Assay [1] concerns the target human serum albumin (human) (UniProt P02768). Kind of assay: SPR (BIAcore). (SPR reads the build-up and loss of mass on a sensor chip optically.)
For assay [2], the target named is mouse serum albumin (mouse) (UniProt P07724). Description: SPR (Biacore), purified construct.

B1: FabB-645dsFv (S3×G4S), Fv heavy mutation T100aA (bispecific antibody, part only; not given: anti-OX40 Fab and linkers, V domains shown, not shown: another chain or arm of the molecule; small tags and cut ends)
VH: EVQLLESGGGLVQPGGSLRLSCAVSGIDLSNYAINWVRQAPGKCLEWIGIIWASGTTFYATWAKGRFTISRDSTTVYLQMNSLRAEDTAVYYCARTVPGYSAAPYFDLWGQGTLVTVSS
VL: DIVMTQSPSSVSASVGDRVTITCQSSPSVWSNFLSWYQQKPGKAPKLLIYEASKLTSGVPSRFKGSGSGTDFTLTISSLQPEDFATYYCGGGYSSISDTTFGCGTKVEIK
modifications: Interchain disulfide between VH Cys44 and VL Cys100 (Kabat) of the dsFv
In assay [1], B1 returned a Kd of 51.6 nM, a koff of 0.0186 s⁻¹ and an association rate constant (kon) of 360000 M⁻¹ s⁻¹.

B2: FabB-648dsFv (2xG4S) (bispecific antibody, part only; not given: anti-OX40 Fab and linkers, V domains shown, not shown: another chain or arm of the molecule; a dimerising Fc or GST; small tags and cut ends)
VH: EVQLVESGGGLVQPGGSLRLSCAVSGFSLSRYAMTWVRQAPGKCLEWIGTITTGGNTNYANWAKGRFTISKDSTTVYLQMNSLRAEDTAVYYCARGGYVSYADATELSLWGQGTLVTVSS
VL: DIVMTQSPSTLSASVGDRVTITCQASQSIGSRLAWYQQKPGKAPKLLIYYASTVASGVPSRFKGSGSGTEFTLTISSLQPDDFATYYCQSYDYSSSSSYAFGCGTKVEIK
modifications: Engineered interchain disulphide between VH Cys44 and VL Cys100 (Kabat; linear position 103 of the VL).
The molecule B2 returned a Kd in assay [2] of 59.6 nM.

What is called Kd is the equilibrium constant for the complex coming apart. High values mean weaker binding, low ones tighter binding. Broadly, the koff is a measure of how fast the partners let go of each other. Lower therefore signals a long-lived complex. A word on the kon: it is the second-order rate constant of association. A lower kon goes with slower complex formation.
